Measured values: article PMC4166121, “Endothelial nitric oxide synthase is regulated by ERK phosphorylation at Ser^602” (Bioscience Reports, 2014)

Target: T1, biotinylated calmodulin (UniProt P0DP23 1-149, biotin (biotinylated; site not stated))
T1 construct: calmodulin (CaM); experiments done 'essentially as described in [27]'; Held by its biotin on streptavidin sensors (BLI) or a biotin CAPture chip (SPR); also called CaM; biotinylated CaM
Assay: BLI; biotinylated CaM immobilised on streptavidin sensors; eNOS 0, 10.9, 31.9, 43.7 and 87.5 nM as analyte; 180 s association, 180 s dissociation; 10 mM HEPES pH 7.4, 100 mM NaCl, 10% glycerol, 10 uM CaCl2, 0.05% surfactant P-20; 25°C; global single-state fit
Settings: both partners purified

B1: endothelial nitric oxide synthase phosphorylated by ERK (enzyme)
chain: MGNLKSVGQEPGPPCGLGLGLGLGLCGKQGPASPAPEPSRAPAPATPHAPDHSPAPNSPTLTRPPEGPKFPRVKNWELGSITYDTLCAQSQQDGPCTPRCCLGSLVLPRKLQTRPSPGPPPAEQLLSQARDFINQYYSSIKRSGSQAHEERLQEVEAEVASTGTYHLRESELVFGAKQAWRNAPRCVGRIQWGKLQVFDARDCSSAQEMFTYICNHIKYATNRGNLRSAITVFPQRAPGRGDFRIWNSQLVRYAGYRQQDGSVRGDPANVEITELCIQHGWTPGNGRFDVLPLLLQAPDEAPELFVLPPELVLEVPLEHPTLEWFAALGLRWYALPAVSNMLLEIGGLEFSAAPFSGWYMSTEIGTRNLCDPHRYNILEDVAVCMDLDTRTTSSLWKDKAAVEINLAVLHSFQLAKVTIVDHHAATVSFMKHLDNEQKARGGCPADWAWIVPPISGSLTPVFHQEMVNYILSPAFRYQPDPWKGSATKGAGITRKKTFKEVANAVKISASLMGTLMAKRVKATILYASETGRAQSYAQQLGRLFRKAFDPRVLCMDEYDVVSLEHEALVLVVTSTFGNGDPPENGESFAAALMEMSGPYNSSPRPEQHKSYKIRFNSVSCSDPLVSSWRRKRKESSNTDSAGALGTLRFCVFGLGSRAYPHFCAFARAVDTRLEELGGERLLQLGQGDELCGQEEAFRGWAKAAFQASCETFCVGEEAKAAAQDIFSPKRSWKRQRYRLSTQAEGLQLLPGLIHVHRRKMFQATVLSVENLQSSKSTRATILVRLDTAGQEGLQYQPGDHIGICPPNRPGLVEALLSRVEDPPPPTESVAVEQLEKGSPGGPPPSWVRDPRLPPCTLRQALTFFLDITSPPSPRLLRLLSTLAEEPSEQQELETLSQDPRRYEEWKWFRCPTLLEVLEQFPSVALPAPLLLTQLPLLQPRYYSVSSAPNAHPGEVHLTVAVLAYRTQDGLGPLHYGVCSTWLSQLKTGDPVPCFIRGAPSFRLPPDPYVPCILVGPGTGIAPFRGFWQERLHDIESKGLQPAPMTLVFGCRCSQLDHLYRDEVQDAQERGVFGRVLTAFSREPDSPKTYVQDILRTELAAEVHRVLCLERGHMFVCGDVTMATSVLQTVQRILATEGDMELDEAGDVIGVLRDQQRYHEDIFGLTLRTQEVTSRIRTQSFSLQERHLRGAVPWAFDPPGPDTPGP
modifications: phosphothreonine at 46, phosphoserine at 58, phosphoserine at 602 (by ERK in vitro; 2-3 phosphates per monomer; phosphorylation incomplete, at least 75%)
notes: endothelial nitric oxide synthase (eNOS); the residue numbers used (Thr46, Ser58, Ser602; Ser602 = human Ser600) are those of bovine eNOS; Same protein as m2 after the ERK kinase reaction (20 mM Hepes pH 7.4, 1 mM DTT, 10 mM MgCl2, 1 mM ATP, 10% glycerol, room temperature); also called ERK phosphorylated eNOS; phosphorylated eNOS
koff: 0.00033 s⁻¹
